Results: patent US5998142

Key:
[1] = target: T1, neutrophil elastase (hNE) (Homo sapiens) (UniProt P08246); test: inhibition
T1 sequence: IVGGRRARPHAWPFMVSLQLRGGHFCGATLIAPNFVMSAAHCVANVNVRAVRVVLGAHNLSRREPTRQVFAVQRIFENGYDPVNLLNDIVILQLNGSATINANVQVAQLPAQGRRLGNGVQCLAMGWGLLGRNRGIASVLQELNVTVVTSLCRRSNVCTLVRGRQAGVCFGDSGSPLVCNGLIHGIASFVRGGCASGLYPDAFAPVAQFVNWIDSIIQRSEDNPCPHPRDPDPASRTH

[2] = target: bradykinin, N-bromoacetylated (BrBK) (UniProt P01042); conditions: 5'-GMPS (5' guanosine monophosphorothioate)
bradykinin, N-bromoacetylated (BrBK), sequence (P01042 whole entry, looked up): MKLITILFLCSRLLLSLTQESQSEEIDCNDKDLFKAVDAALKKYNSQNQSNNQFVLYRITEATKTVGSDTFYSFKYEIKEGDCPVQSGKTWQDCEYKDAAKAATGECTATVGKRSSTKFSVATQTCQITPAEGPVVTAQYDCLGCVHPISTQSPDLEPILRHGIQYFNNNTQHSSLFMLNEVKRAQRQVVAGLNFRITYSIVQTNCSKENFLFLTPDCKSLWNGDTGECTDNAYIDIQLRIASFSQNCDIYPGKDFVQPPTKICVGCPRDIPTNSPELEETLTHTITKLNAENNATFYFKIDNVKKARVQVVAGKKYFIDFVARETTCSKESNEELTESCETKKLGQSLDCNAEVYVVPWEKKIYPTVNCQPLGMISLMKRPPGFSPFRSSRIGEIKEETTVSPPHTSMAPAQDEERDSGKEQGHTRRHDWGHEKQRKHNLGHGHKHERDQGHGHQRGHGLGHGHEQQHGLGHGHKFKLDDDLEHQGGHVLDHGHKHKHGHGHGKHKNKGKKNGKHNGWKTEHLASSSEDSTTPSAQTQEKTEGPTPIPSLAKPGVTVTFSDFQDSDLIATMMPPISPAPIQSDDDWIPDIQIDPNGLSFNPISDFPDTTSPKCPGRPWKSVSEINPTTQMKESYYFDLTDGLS

For “GGGAGGACGAUGCGGNNNNNNNNNNNNNNNNNNNNNNNNNNNNNNNNNNNNNNNNCAGACGACGAGCGGGA [40N7.1 rd0 RNA:DNA:valP]”, which activity ([1]; 2'-NH2 U and C, kinact/[I], unit not given, pool, 37 C) is on record?
The activity was 290000.

“GGGAGGACGAUGCGGNNNNNNNNNNNNNNNNNNNNNNNNNNNNNNNNNNNNNNNNCAGACGACGAGCGGGA [40N7.1 ssDNA pool]” was tested. Which activity ([1]; kinact/KI, pool, room temperature) did it give?
The activity was 1.86e+06 M⁻¹ min⁻¹.

With “GGGAGCUCAGAAUAAACGCUCAANNNNNNNNNNNNNNNNNNNNNNNNNNNNNNUUCGACAUGAGGCCCGGAUCCGGC [30N1 pool]” as the sequence, how does the K half [2] read?
The K half was 13 mM.

How did the activity ([1]; kinact/KI, room temperature) turn out when “GGGAGGACGATGCGGACCACAGCCACTAGNNGCATCGTCCTCTGCGTCCAGACGACGAGCGGGA [ED21]” was run?
Its activity is 3.2e+06 M⁻¹ min⁻¹.

For “GGGAGGACGATGCGGCAGNNGGNNCAGGTAATGTGAGTAACCTCTACTACTCTGCAGACGACGAGCGGGA [ED15]”, which activity ([1]; kinact/KI, room temperature) is on record?
Its activity is 4.8e+08 M⁻¹ min⁻¹.
